The record followed here is paper PMC7564285.

In assay [1] the target is γHV68 M11 L103A (murine γ-herpesvirus 68) (UniProt P89884). Description: ITC; Beclin 1 BH3D peptide titrated into M11 protein, 25 injections of 2 μL, 14 °C; 50 mM HEPES pH 7.5, 150 mM NaCl, 2 mM βME; independent model. In general terms: ITC needs no label: the signal is the heat of the interaction.
In assay [2] the target is γHV68 M11 L128A (murine γ-herpesvirus 68) (UniProt P89884). The description is as above.
Assay [3] concerns the target γHV68 M11 Y97A (murine γ-herpesvirus 68) (UniProt P89884). The description is as above.
The target of assay [4] is γHV68 M11 M119A (murine γ-herpesvirus 68) (UniProt P89884). The description is as above.
Assay [5] has as its target γHV68 M11 F79A (murine γ-herpesvirus 68) (UniProt P89884). The description is as above.
The target in assay [6] is M11 A63K (murine γ-herpesvirus 68) (UniProt P89884). Description: ITC; BH3D peptide titrated into M11 protein (25 injections of 2 μL); 14 °C; 50 mM HEPES pH 7.5, 150 mM NaCl, 2 mM βME; co-dialyzed overnight; independent model.
Assay [7] addresses M11 F48A (murine γ-herpesvirus 68) (UniProt P89884). Described as above.
The target in assay [8] is murine γ-herpesvirus 68 vBCL2 M11, wild type (murine γ-herpesvirus 68) (UniProt P89884). Described as above.
Assay [9] has as its target M11 Y56A (murine γ-herpesvirus 68) (UniProt P89884). Described as above.

As to Beclin 1 BH3D peptide, the Ka amounted to 417000 M⁻¹ in assay [1]; 1.12e+06 M⁻¹ in assay [2]; 920000 M⁻¹ in [3]; 527000 M⁻¹ in [4]; 4.6e+06 M⁻¹ in [5]; 160000 M⁻¹ in assay [6]. In addition, the Ka in assay [7] was determined as 158000 M⁻¹; in assay [8] it was 1.2e+06 M⁻¹; in assay [9] it was 300000 M⁻¹. For the same substance, the Kd (commonly the equilibrium constant for the complex coming apart) in [1] came to 2400 nM; in assay [2] it was 900 nM; in [3], 1130 nM; in assay [4] it was 1900 nM; in assay [5] it was 2200 nM; in [6], 6500 nM. Further, the Kd in assay [7] came out at 63400 nM; in assay [8], 840 nM; in [9], 3380 nM. Also, the dH in assay [6] is -9.49 kcal/mol; in assay [7], -8.63 kcal/mol; in assay [8] it was -12.8 kcal/mol; in [9], -9.03 kcal/mol.
